In US20210292730:

Target: T1, Recombinant murine APRIL (Sigma SRP3189-20UG), Q9D777
T1 chain: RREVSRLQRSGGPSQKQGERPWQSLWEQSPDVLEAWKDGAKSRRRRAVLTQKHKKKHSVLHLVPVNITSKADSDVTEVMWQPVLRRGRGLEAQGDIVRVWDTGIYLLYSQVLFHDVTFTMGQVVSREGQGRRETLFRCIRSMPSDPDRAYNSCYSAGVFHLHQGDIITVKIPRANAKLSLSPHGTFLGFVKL

B1: plant produced recombinant human Furin (truncated form, pEAQ-Furin (truncated)-His6-KDEL, produced in N. benthamiana) (protein)
chain: QGQKVFTNTWAVRIPGGPAVANSVARKHGFLNLGQIFGDYYHFWHRGVTKRSLSPHRPRHSRLQREPQVQWLEQQVAKRRTKRDVYQEPTDPKFPQQWYLSGVTQRDLNVKAAWAQGYTGHGIVVSILDDGIEKNHPDLAGNYDPGASFDVNDQDPDPQPRYTQMNDNRHGTRCAGEVAAVANNGVCGVGVAYNARIGGVRMLDGEVTDAVEARSLGLNPNHIHIYSASWGPEDDGKTVDGPARLAEEAFFRGVSQGRGGLGSIFVWASGNGGREHDSCNCDGYTNSIYTLSISSATQFGNVPWYSEACSSTLATTYSSGNQNEKQIVTTDLRQKCTESHTGTSASAPLAAGIIALTLEANKNLTWRDMQHLVVQTSKPAHLNANDWATNGVGRKVSHSYGYGLLDAGAMVALAQNWTTVAPQRKCIIDILTEPKDIGKRLEVRKTVTACLGEPNHITRLEHAQARLTLSYNRRGDLAIHLVSPMGTRSTLLAARPHDYSADGFNDWAFMTTHSWDEDPSGEWVLEIENTSEANNYGTLTKFTLVLYGTAPEGLPVPPESSGCKTLTSSQAHHHHHHKDEL
For B1, the “in vitro cleavage of 5 µg APRIL by 25 ng Furin, 25° C., 1 h, SDS-PAGE” value was “recombinant APRIL protein is cleaved by both plant produced human Furin (25ng) or commercial Furin (25 ng) and 16.8 kDa fragment was generated”.
